Molecular target: CLDN18.2 on lipoparticles
Experiment: ELISA on CLDN18.2-lipoparticles

## IMAB362 (antibody)
  EC50: 0.0515 µg/mL

— US20240100180A1
